Data set [1] deals with the molecule itself. Briefly: SEC; purified monomers refolded at 4 °C in 50 mM Tris pH 8.5, 1 M NaCl, 5 mM EDTA, 2% CHAPS, 2 mM reduced and 1 mM oxidized glutathione; after reverse phase chromatography the dimer was isolated on a HiLoad Superdex 75 column. In general terms: SEC sorts molecules by how far they enter the pores of the column.
Data set [2] concerns the target T1, BMP-7 (human, UniProt P18075 293-431).
T1 construct: Non-glycosylated (made in E. coli); also called BMP-7 monomer; BMP-7 chain of TG-BMP-2/BMP-7
T1 sequence (looked up): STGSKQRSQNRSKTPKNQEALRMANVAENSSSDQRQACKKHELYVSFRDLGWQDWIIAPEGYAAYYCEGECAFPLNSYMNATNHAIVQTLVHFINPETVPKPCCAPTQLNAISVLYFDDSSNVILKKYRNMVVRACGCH
Briefly: non-reduced Western blot with two-colour infrared detection; TG-BMP-2 and BMP-7 monomers combined in equimolar amounts and refolded together, heterodimer purified by heparin affinity, size exclusion and reverse phase chromatography; non-reduced blot probed with anti-BMP-2/4 (700 nm) and anti-BMP-7 (800 nm); overlapping bands indicate the heterodimer. As to conditions: both partners purified. (In general: A western blot detects proteins with antibodies after separation by electrophoresis.)

B1: TG-BMP-2 (ligand, human)
chain: MNQEQVSPLPVELPLIKMKPHQAKHKQRKRLKSSCKRHPLYVDFSDVGWNDWIVAPPGYHAFYCHGECPFPLADHLNSTNHAIVQTLVNSVNSKIPKACCVPTELSAISMLYLDENEKVVLKNYQDMVVEGCGCR
notes: One chain is written; also called engineered BMP-2; TG-BMP-2 monomer
For the molecule B1, the binding result in data set [1] and in data set [2] was “binds” in each case.

B2: BMP-2 (ligand, human, UniProt P12643 283-396, looked up)
chain: QAKHKQRKRLKSSCKRHPLYVDFSDVGWNDWIVAPPGYHAFYCHGECPFPLADHLNSTNHAIVQTLVNSVNSKIPKACCVPTELSAISMLYLDENEKVVLKNYQDMVVEGCGCR
notes: bone morphogenetic protein 2 (BMP-2), human, active BMP-2 protein only; also called BMP-2 homodimer; regular BMP-2 without the TG site
For the molecule B2, the binding result in data set [1] was “binds”.

Source of the values: article PMC5455435, “Fibrin Hydrogel Based Bone Substitute Tethered with BMP-2 and BMP-2/7 Heterodimers” (Materials, 2015).
